Data on two substances can be found in doi:10.1101/2025.07.10.664163.

Assay [1] addresses Alexa-488 maleimide-labeled α-syn^ΔCTD (Δ104-140, A18C) (human) (UniProt P37840). Nature of the assay: fluorescence polarisation. Background: Fluorescence polarisation rises when a labelled molecule tumbles more slowly, as on binding a larger partner.
In assay [2] the target is Alexa-488 maleimide-labeled α-synuclein (G132C) (human) (UniProt P37840). Put plainly: fluorescence polarisation.

In assay [1], “SARS-CoV-2 nucleocapsid protein with the CTD deleted (NP^ΔCTD) (domain or fragment)” displayed a fold rise of Kd on removing the CTD of α-syn of 3.5 fold. Also, in assay [2], the Kd is 1.85 µM.

“SARS-CoV-2 nucleocapsid protein with the NTD deleted (NP^ΔNTD) (domain or fragment)” returned a fold rise of Kd on removing the CTD of α-syn in assay [1] of 4 fold. This substance also displayed a Kd in assay [2] of 3.67 µM.

A word on the Kd: it is the concentration at which binding is half-saturated. A higher Kd goes with lower affinity.
